Results as given in paper PMC12802541.

Key:
[1] = target: Rabbit skeletal actin (rabbit) (UniProt P68135); assay: TIRF microscopy; 50 nM phosphorylated NM2 filaments added to anti-parallel actin arrays anchored by their barbed ends on patterned formin; MB150 (150 mM KCl, 5 mM MgCl2, 0.1 mM EGTA, 20 mM MOPS, pH 7.4), 1 mM ATP, 1 mM DTT, 0.6% methylcellulose, 30 °C
[2] = target: Rabbit skeletal actin (rabbit) (UniProt P68135)

dwell time (lifetime of attachment) [1] [min]	fraction of tension sensor modules that are tensed (amplitude of the long lifetime component, global fit of FLIM) on patterned actin bundles [2] [%]	Substance
> 15		Non-muscle myosin 2B, Halo-tagged, phosphorylated, pre-polymerized filaments (from UniProt P35580 1-1976; P60660 1-151; O14950 1-172) (complex)
	80	TsMod NM2A (non-muscle myosin 2A with an embedded FRET-based tension sensor module), RLC phosphorylated (from UniProt P35579 1-1960; P60660 1-151; O14950 1-172) (complex)
